The chains are these.
B1: C871 (antibody, V domains shown)
VH: EVQLVESGGGLIQTGGSLKLSCAASGFIVTNNYMSWVRQAPGKGLEWVSVIYSGGTTYYADSVKGRFTISRDISKNTLYLQMNSLKAEDTAVYYCAREGDVEGISDSWSGYSRDRYYFDHWGQGTLVTVSS
VL: QSALTQPASVSGSPGQSITISCTGTSSDVGGYNYVSWYQQHPGKAPKLMIYDVSNRPPTISNRFSGSKSGNTASLIISGLQPEDEADYYCSSFTSNNTRVFGTGTKVTVL
notes: source: recombinant, purified
B2: C108 (antibody, V domains shown)
VH: QVQLQESGPGLVKPSGTLSLTCAVSGGSISSTNWWSWVRQPPGKGLEWIGEIYHTGSTNYNPSLKSRVTISVDKSKNQFSLKLSSVTAADTAVYYCVRDGGRPGDAFDIWGQGTMVTVSS
VL: QSALTQPASVSGSPGQSITISCTGTSSDVGGYNYVSWYQQHPGKAPKLMIYDVSNRPSGVSNRFSGSKSGNTASLTISGLQAEDEADYYCNSYTSSSTRVFGTGTKVTVL
notes: source: recombinant, purified
B3: C517 (antibody, V domains shown)
VH: EVQLVESGGGLVQPGGSLRLSCAASEFIVSRNYMSWVRQAPGKGLEWVSLIYSGGSTYYADSVKGRFTISRDNSKNTLYLQMNSLRAEDTAMYYCARDIAGRLDYWGQGTLVTVSS
VL: DIQMTQSPSSLSASVGDRVTITCQASQDISKYLNWYQQKPGKAPKLLIYDASNLETGVPSRFSGSGSGTDFTFTISSLQPEDFATYYCQHYDSLSRLTFGGGTKVEIK
notes: source: recombinant, purified
B4: C1002 (antibody, V domains shown)
VH: EVQLVESGGGLVQPGGSLRLSCAASEFIVSSNYMTWVRQAPGKGLEWVSIMYPGGSTFYADSVKGRFTISRDNSKNTLYLQINRLRAEDTAVYYCARDIAGRLDYWGQGTLVTVSS
VL: DIQMTQSPSSLSASVGDRVTITCQASQDINNYLNWYQQKPGKAPKLLIYDASNLETGVPSRFSGSGSGTDFSFTISSLQPEDIATYYCQQYDNLSRLTFGGGTKVEIK
notes: source: recombinant, purified
B5: C934 (antibody, V domains shown)
VH: QVQLVQSGAEVKKPGASVKVSCKASGYTFTDYYIHWVRQAPGQGLEWMGWINPNSGGTNYAQKFQGRVTMTRDTSISTAYMDLSRLRSDDTAVYYCARDVIITMGRGVVFRMDVWGQGTTVTVSS
VL: not shown
notes: source: recombinant, purified
B6: C1003 (antibody, V domains shown)
VH: QVQLVESGGGVVQPGRSLRLSCAASGFAFSSYGMNWVRQAPGKGLEWVTTVSSDGNVNYYIDSVKGRFTISRDNSKNTLYLQMNSLRGDDTAVYYCAKGPRFGWSYRGGSGFDIWGQGTMVTVSS
VL: DIQMTQSPSSLSASVGDRVTITCQASQDISNYLNWYQQKPGKAPKLLIYDASNLETGVPSRFSGSGSGTDFTFTITSLQPEDIATYYCQQYDNLPITFGQGTRLEIK
notes: source: recombinant, purified
B7: C888 (antibody, V domains shown)
VH: EVQLVESGGGLVQPGGSLRLSCAASGFTVSSNYMSWVRQAPGKGLEWVSVIYSGGSAYYADSVKGRFTISRDNSKNTLYLQMNSLRAEDTAVYYCARDLRDQDGYSYGAFDYWGQGTLVTVSS
VL: QSALTQPASVSGSPGQSITISCTGTSSDVGGYNYVSWYQQHPGKAPKLMIYDVSNRPSGVSNRFSGSKSGNTASLTISGLQAEDEADYYCSSYTSSSSWVFGGGTKLTVL
notes: source: recombinant, purified
B8: C1008 (antibody, V domains shown)
VH: EVQLVESGGGLIQPGGSLRLSCAASGFTVSSNYMSWVRQAPGKGLEWVSVIYSGGSTYYADSVKGRFTISRDNSKNTLYLQMNSLRAEDTAVYYCARVVGYDFWSGYDGGYFDYWGQGTLVTVSS
VL: QSALTQPASVSGSPGQSITISCTGTSSDVGSYNLVSWYQQHPGKAPKLMIYEVSKRPSGVSNRFSGSKSGNTASLTISGLQAEDEADYYCCSYAGSSTWVFGGGTKLTVL
notes: source: recombinant, purified
B9: C1009 (antibody, V domains shown)
VH: EVQLVESGGGLLQPGGSLRLSCAASGFSVSSNYMTWVRQAPGKGLEWVAAIYSGDSTYYVDSVKGRFIISRDNSKNTVYLHLSSLRAEDTAVYYCARLVGYDFRSGSDGGYFDYWGHGTLVTVSS
VL: QSALTQPASVSGSPGQSITISCTGTSSDIGNYNLVSWYQQHPGKAPKLMIYDVSKRPSGVSNRFSGSKSGNTASLTISGLQAEDETDYYCCSYAGSSTWVFGGGTKLTVL
notes: source: recombinant, purified
B10: C153 (antibody, V domains shown)
VH: EVQLVESGGGLIQPGGSLRLSCAASGFTVSSNYMSWVRQAPGKGLEWVSVIYSGYSTYYVDSVKGRFTISRDNSKNTLYLQMNSLRAEDTAVYYCARVGGAHSGYDGSFDYWGQGTLVTVSS
VL: QSALTQPASVSGSPGQSITISCTGTSSDVGSYNLVSWYQQHPGKAPKLMIYEGSKRPSGVSNRFSGSKSGNTASLTISGLQAEDEADYYCCSYAGSSTWVFGGGTKLTVL
notes: source: recombinant, purified
B11: C010 (antibody, V domains shown)
VH: EVQLVESGGGVVQPGRSLRLSCAASGFTFSSYAMHWVRQAPAKGLEWVAVILYDGSGKYYADSVKGRFTISRDNSKNTLYLQMNSLRAEDTAVYYCARDGIVDTALVTWFDYWGQGTLVTVSS
VL: not shown
notes: source: recombinant, purified
B12: C937 (antibody, V domains shown)
VH: EVQLVESGGGLIQPGGSLRLSCAASELTVSSNYMSWVRQAPGKGLEWVSVIYPGGSTFYADSVKGRFTISRDNSKNTLYLQMNSLRAEDTAVYYCARDLGTGLFDYWGQGTLVTVSS
VL: DIQLTQSPSFLSASVGDRVTITCRASQGISSYLAWYQQKPGKAPKLLIYAASTLQSGVPSRFSGSGSGTEFTLTISSLQPEDFATYFCQLLNSNPPGTFGPGTKVDIK
notes: source: recombinant, purified
B13: C952 (antibody, V domains shown)
VH: EVQLVQSGAEVKKPGESLTISCKDSGNSFTIYWIGWVRQMPGKGLEWMGMIYPGDSGTRYSPSFEGQVTISADESINTAYLQWRSLKASDTAMYYCVRGIAVDWYFDLWGRGTLVTVSS
VL: QSVLTQPPSVSGAPGQRVTISCTGSSSNIGAGFDVHWYQQLPGTAPKLLIYGNNNRPSGVPDRFSGSKSATSASLAITGLQAEDEADYYCQSSDSSLSGLYVFGTGTNVIV
notes: source: recombinant, purified
B14: C954 (antibody, V domains shown)
VH: QVQLVQSGAEVKKPGSSVKVSCKASGDTFTNYAFSWMRQAPGQGLEWMGRIIPILGIVKYSQKFQDRVRISADKSTSTAYMDLSSLRSEDTAMYYCARDSEFSTSWFSRGYHGMDVWGQGTTVTVSS
VL: DIVMTQSPLSLPVTPGEPASISCRSSQSLLHGDGYNYLDWYLQKPGQSPHLLIYLGSNRTSGVSDRFSGSGSGTDFTLKISRVEAEDVGVYYCMQALQTPPTFGGGTKVEIK
notes: source: recombinant, purified
B15: C032 (antibody, V domains shown)
VH: EVQLVQSGAEVKKPGESLKISCKGSGYSFTSYWIGWVRQMPGKGLEWMGIIYPGDSDTRYSPSFQGQVTISADKSISTAYLQWSSLKASDTAMYYCARGVAVDWYFDLWGRGTLVTVSS
VL: QSVLTQPPSVSGAPGQRVTISCTGSSSNIGAGYDVHWYQQLPGTAPKLLIYGNSNRPSGVPDRFSGSKSGTSASLAITGLQAEDEADYYCQSYDSSLSALYVFGTGTKVTVL
notes: source: recombinant, purified
B16: C889 (antibody, V domains shown)
VH: EVQLVESGGGLVQPGGSLRLSCAVSGFTVSSNYMTWVRQAPGKGLEWVSLIYSGTSAFYADSVKGRFTISRDNSKNTLYLQMSSLRVNDTAIYYCARDLRKDDGYSYGAFDYWGQGTLVTVSS
VL: QSALTQPASVSGSPGQSITISCSGTSSDVGAHNYVSWYQQYPGKAPKLMIFDVTDRPSGVSNRFSGSKSGNTASLTISGLQAEDEADYYCTSYTTNRSWVFGGGTKVTVL
notes: source: recombinant, purified
B17: C953 (antibody, V domains shown)
VH: QVQLVQSGAEVKKPGSSVKVSCKASGGTFSSYAISWVRQAPGQGLEWMGRIIPILGIANYAQKFQGRVTITADKSTSTAYMELSSLRSEDTAVYYCARDSEYSSSWYSRGYYGMDVWGQGTTVTVSS
VL: not shown
notes: source: recombinant, purified
B18: C881 (antibody, V domains shown)
VH: EVQLVESGGGLIQPGGSLRLSCAVSGVAVSTNYMSWVRQAPGQGLEWVSTIYSGDTTYYSDSVKGRFTISRDNSKNTFYLQMNSLRVPDTAVYYCARLGGVFNGFNGSFDYWGQGTLVTVS
VL: QSALTQPASVSGSPGQSITISCIGTSSDFENYNLVSWYQQHPGKAPKVMIYEDTKRPSGVSNRFSGSKSANTASLTISGLQAEDEAEYYCCSYAGASTWVFGGGTRVTVV
notes: source: recombinant, purified
B19: C951 (antibody, V domains shown)
VH: QVQLQESGPRLVKPSGTLSLTCAVSGGSISTTNWWSWVRQPPGKGLEWIGEIHHSGNTNYNPSLKSRVTISVDRSKNQFSLKLSSVTAADTAVYFCARDGGRPGDPFDIWGQGTMVTVSS
VL: QSALTQPASVSGSPGQSITISCTGTSSDVGGYNYVSWYQQHPGKAPNLMIYDVSDRPSGVSNRFSGSKSGNTASLTISGLQAEDEADYYCNSFTSNSTRVFGTGTKVTV
notes: source: recombinant, purified
B20: C929 (antibody, V domains shown)
VH: EVQLVESGGGLIQPGGSLRLSCAASGFTVSSNYMTWVRQAPGKGLEWVSVIYSGGTTYYADSVKGRFTISRDNSKNTLYLQMNSLRAEDTAVYYCARDLVVWGMDVWGQGTTVTVSS
VL: DIQLTQSPSFLSASVGDRVTITCRASQGISSYLAWYQQKPGKAPKLLIYAASTLQSGVPSRFSGSGSGTEFTLTISSLQPEDFATYYCQLLNSYPYTFGQGTKLEIK
notes: source: recombinant, purified
B21: C930 (antibody, V domains shown)
VH: EVQLVESGGGLFQPGGSLRLACAASGITVSSNYMSWVRQPPGKGLEWVSVIYAGGSTFYADSVKGRLTISRDNSKNTLYLQINSLRAEDTAVYYCARDLVVWGMDVWGQGTTVTVSS
VL: DIQLTQSPSFLSASVGDRVTITCRASQGISSYLAWYQQKPGKAPKLLIYAASTLQSGVPSRFSGSGSGTEFTLTISSLQPEDFATYYCQQLNTYPYTFGQGTKLEIK
notes: source: recombinant, purified
B22: C840 (antibody, V domains shown)
VH: QVQLVESGGGVVQPGRSLRLSCEASGFTFTAYAMHWLRQAPGKGLEWVAVILNDGSNKLYADSVKGRFTVSRDNSKNMLYLQVNSLRVDDTAVYYCARDGSVDTLMVTWFDYWGQGTLVTVSS
VL: DIQMTQSPSSLSASVGDRVTITCRASQSVNNYLNWYQQKPGQAPKLLIYAASSLQSGVPLRFSGSGSGTDFALTITSLHTEDFATYYCQQSYNTPPWTFGPGTKVEIK
notes: source: recombinant, purified

The assay concerns the target SARS-CoV-2 receptor binding domain (RBD) (SARS-CoV-2, GenBank MN985325.1 …, UniProt P0DTC2). Put plainly: BLI. Conditions: both partners purified.
B1 had a dissociation constant (Kd) of 2.76 nM.
B2 showed a Kd of 21.5 nM.
For B3 the value was 28.8 nM; for B4, 0.00513 nM.
B5 returned a Kd of 10.8 nM. Compared with the last molecule, the Kd is about 2100-fold higher.
B6: the Kd amounted to 11.5 nM.
Turning to B7, the Kd turned out to be 7240 nM.
For B8 the value was 208 nM; for B9, 4.79 nM; for B10, 1380 nM.
For B11 the value was 35.1 nM; for B12, 4.4 nM; for B13, 0.587 nM.
To B14 belongs 1.47 nM; to B15, 32.1 nM; to B16, 2.46 nM.
As for B17, the Kd is 620 nM. This Kd lies about 250-fold higher than the previous one.
Turning to B18, the affinity, expressed as Kd, was 1.95 nM.
In the case of B19, the Kd is 3.34 nM.
As for B20, the Kd was 0.791 nM.
With B21, the dissociation constant (Kd) was determined as 0.318 nM.
In turn, B22 came in with a Kd of 1.87 nM.

By Kd is commonly meant the free concentration of one partner at which half of the binding sites on the other are occupied at equilibrium, for simple one-to-one binding. Read a high Kd as a looser complex.
